Data published in patent publication US11103555B2, “Compositions and methods for reducing tumor cell growth at a site of solid tumor excision” (The Pacific Heart, Lung, & Blood Institute, priority 2016, dated 2021).

System: melanoma
Assay: Treatment of patients with melanoma
Type: in vivo
Method: 100 patients are diagnosed with melanoma and subject to IL-12 recombinant protein injection at the tumor site. Patients receive either vehicle injections, 250 ng/kg/day of IL-12 or 500 ng/kg/day of IL-12 per treatment every three days for a week. […] By 5 years post-surgery, 40% of the patients who undergo IL-12 therapy have a relapse of […], and have 60% survival rate.
100 patients are diagnosed with melanoma and are administered genetically modified stem cells expressing IL-12 by intracavitary infusion. Tumor size is monitored by PET scan, and at the end of six months, the tumor size is reduced.

B1: IL-12: IL-12 recombinant protein injected at the tumor site (protein, listed as Homo sapiens)
chain 1: MCHQQLVISWFSLVFLASPLVAIWELKKDVYVVELDWYPDAPGEMVVLTCDTPEEDGITWTLDQSSEVLGSGKTLTIQVKEFGDAGQYTCHKGGEVLSHSLLLLHKKEDGIWSTDILKDQKEPKNKTFLRCEAKNYSGRFTCWWLTTISTDLTFSVKSSRGSSDPQGVTCGAATLSAERVRGDNKEYEYSVECQEDSACPAAEESLPIEVMVDAVHKLKYENYTSSFFIRDIIKPDPPKNLQLKPLKNSRQVEVSWEYPDTWSTPHSYFSLTFCVQVQGKSKREKKDRVFTDKTSATVICRKNASISVRAQDRYYSSSWSEWASVPCS
chain 2: MWPPGSASQPPPSPAAATGLHPAARPVSLQCRLSMCPARSLLLVATLVLLDHLSLARNLPVATPDPGMFPCLHHSQNLLRAVSNMLQKARQTLEFYPCTSEEIDHEDITKDKTSTVEACLPLELTKNESCLNSRETSFITNGSCLASRKTSFMMALCLSSIYEDLKMYQVEFKTMNAKLLMDPKRQIFLDQNMLAVIDELMQALNFNSETVPQKSSLEEPDFYKTKIKLCILLHAFRIRAVTIDRVMSYLNAS
**Q.** What does the source list for B1?
**A.** tumor size by PET scan, higher dose (500 ng/kg/day versus 250 ng/kg/day or vehicle): greater reduction in tumor size than the lower dose or vehicle injected patients; tumor size by PET scan (IL-12 recombinant protein injection at the tumor site, 250 or 500 ng/kg/day every three days for a week, versus vehicle): reduced tumor size; patients with relapse (by 5 years): 40%; survival rate (by 5 years): 60%; T cell activation and immune cell infiltration in biopsies of injected lesions (versus vehicle injections): more T cell activation and immune cell infiltration
